# Reference: publication PMC6136348, “In the quest for new targets for pathogen eradication: the adenylosuccinate synthetase from the bacterium Helicobacter pylori” (Journal of Enzyme Inhibition and Medicinal Chemistry, 2018)
# Tests used:
# [1] = substrate: Nc1nc2c(ncn2[C@@H]2O[C@H](COP(=O)(O)OP(=O)(O)OP(=O)(O)O)[C@@H](O)[C@H]2O)c(=O)[nH]1; assay: Michaelis-Menten kinetics of the purified enzyme (Km); assay type: biochemical, Helicobacter pylori; details: Mg2+
# [2] = substrate: N[C@@H](CC(=O)O)C(=O)O; assay: as above; assay type: biochemical, Helicobacter pylori; details: Mg2+
protein,measurement,setting,value
"adenylosuccinate synthetase (AdSS) (Helicobacter pylori 26695) (protein, recombinant protein expressed from pET21b-HPpurA) MADVVVGIQWGDEGKGKIVDRIAKDYDFVVRYQGGHNAGHTIVHKGVKHSLHLMPSGVLYPKCKNIISSAVVVSVKDLCEEISAFEDLENRLFVSDRAHVILPYHAKKDAFKEKSQNIGTTKKGIGPCYEDKMARSGIRMGDLLDDKILEEKLNAHFKAIEPFKKAYDLGENYEKDLMGYFKTYAPKICPFIKDTTSMLIEANQKGEKILLEGAQGTLLDIDLGTYPFVTSSNTTSASACVSTGLNPKAINEVIGITKAYSTRVGNGPFPSEDTTPMGDHLRTKGAEFGTTTKRPRRCGWLDLVALKYACALNGCTQLALMKLDVLDGIDAIKVCVAYERKGERLEIFPSDLKDCVPIYQTFKGWEKSVGVRKLDDLEPNVREYIRFIEKEVGVKIRLISTSPEREDTIFL",Km,[1],8.7 ± 0.6 µM
same,Vmax,[1],1.42 µmol/min/mg
same,Km,[2],125.4 ± 7.7 µM
same,Vmax,[2],1.1 µmol/min/mg
